These results are taken from US12723255B2, “Herbicide tolerance genes and methods of use thereof” (priority 2014, dated 2026).

The subject of one data set is transgenic maize plants. The data set is described as follows: R1 green house quizalofop-P spray test. In kind it is in vivo. The note with it: R1 maize with CTP; quizalofop-P 1× at V2; eleven days after treatment. The source says:
Plant transformation vectors were constructed each comprising a recombinant DNA molecule encoding one of three engineered proteins with the protein-coding sequence optimized for monocot expression, MON-HT51 (SEQ ID NO:3), MON-HT52 (SEQ ID NO:6), and MON-HT55 (SEQ ID NO:13). The vectors were created using different combinations of promoter, leader, intron, and 3′UTR and with and without a CTP operably linked to the protein-coding sequence. Also included in the vectors was a second DNA cassette comprising a cp4-EPSPS coding sequence to be used in transgenic plants for glyphosate tolerance. Immature maize (LH244) embryos were transformed with these vectors using Agrobacterium tumifaciens and standard methods known in the art. Regenerated R0 transgenic plantlets were grown in the green house and sprayed at approximately V2-V4 growth stage with 0.04 or 0.08 lb ai/acre quizalofop-P (AssureTM II, E.I. DuPont), representing 0.5× and 1× rates, respectively. Leaf samples were used to identify transgenic plants with a single copy of the transgenic DNA insert (that is, single event plants). […]
R1 plants expressing MON-HT55 with and without an operably linked CTP were grown in the green house and quizalofop-P herbicide was applied at the V2 growth stage at a rate of 0.08Ib ac/acre (1×). Plants were evaluated for injury eleven days after treatment.

Data set [1] in a line: enzyme activity assay at 23° C. with purified enzyme. In kind it is biochemical. Here is the method: The enzyme activity of MON-HT protein variants with triclopyr, fluroxypyr, MCPA, MCPB, mecoprop, as substrates was determined using the enzyme activity assay conducted at 23° C. with purified enzyme. The activity was recorded as the maximum activity as a percentage of the wild-type RdpA enzyme's activity, which was set at 100%. […] The enzymatic activity with mecoprop as a substrate was reduced for each of the MON-HT1, MON-HT13, MON-HT15, and MON-HT17 variants compared to the wild-type RdpA enzyme. An unexpected result was that enzymatic activity with MCPA as a substrate was roughly 6-fold greater for MON-HT1, and approximately 10-fold greater for MON-HT13, MON-HT15, and MON-HT17 compared to the wild-type RdpA enzyme.

The mark [2] stands for this setting: percentage of wild-type RdpA, set at 100%.

B1: MON-HT55: engineered oxygenase protein, amino acid sequence SEQ ID NO:11 (protein)
chain: MHAALSPLSQRFERIAVQPLTGVLGAEITGVDLREPLDDSTWNEILDAFHTYQVIYFPGQAITNEQHIAFSRRFGPVDPVPLLKSIEGYPEVQMIRREANESGRVIGENWHTDSTFLDAPPAAVVMYAKEIPPYGGDTLFTSMYTAWETLSPTMQATIEGLNVVHSATRVFGSLYQAQNRRFSNTSVKVMDVDAGDRETVHPLVVTHPETGRKGLYVNQVYCQRIEGMSEKESEPLLSFLFAHATKPEFTCRVRWQEGDVLVWDNLCTQHYAVPDYAGKFRYLTRTTVGGVRPAR
Regarding B1, the injury scores in the data set with transgenic maize plants is at most 5%.

B2: MON-HT1: engineered oxygenase protein, amino acid sequence SEQ ID NO:14 (protein)
chain: MHAALTPLTNKYRFIDVQPLTGVLGAEITGVDLREPLDDSTWNEILDAFHTYQVIYFPGQAITNEQHIAFSRRFGPVDPVPILKSIEGYPEVQMIRREANESSRFIGDDWHTDSTFLDAPPAAVVMRAIEVPEYGGDTGFLSMYSAWETLSPTMQATIEGLNVVHSATKVFGSLYQATNWRFSNTSVKVMDVDAGDRETVHPLVVTHPVTGRRALYCNQVYCQKIQGMTDAESKSLLQFLYEHATKFDFTCRVRWKKDQVLVWDNLCTMHRAVPDYAGKFRYLTRTTVAGDKPSR
Consider B2, for which, in data set [1], the “activity with MCPB as the substrate” value was “no detectable activity” and the “enzymatic activity with MCPA greater compared to the wild-type RdpA enzyme” value is recorded as “roughly 6 fold”. For the same molecule, in data set [1] (not robust enough to quantify), the “activity with fluroxypyr as the substrate” value is recorded as “detectable activity” and the “activity with triclopyr as the substrate” value is “detectable activity”. In addition, in data set [1] (setting [2]), the “MCPA Km” value came out at 21%, the “MCPA Vmax” value is recorded as 600% and the “Mecoprop Km” value is recorded as 142%.
